{"source": "IntAct's records for PubMed 17932490", "parents": {"B1": {"name": "Serine/threonine-protein kinase 4 (Homo sapiens), Q13043 (parent)", "chain": "METVQLRNPPRRQLKKLDEDSLTKQPEEVFDVLEKLGEGSYGSVYKAIHKETGQIVAIKQVPVESDLQEIIKEISIMQQCDSPHVVKYYGSYFKNTDLWIVMEYCGAGSVSDIIRLRNKTLTEDEIATILQSTLKGLEYLHFMRKIHRDIKAGNILLNTEGHAKLADFGVAGQLTDTMAKRNTVIGTPFWMAPEVIQEIGYNCVADIWSLGITAIEMAEGKPPYADIHPMRAIFMIPTNPPPTFRKPELWSDNFTDFVKQCLVKSPEQRATATQLLQHPFVRSAKGVSILRDLINEAMDVKLKRQESQQREVDQDDEENSEEDEMDSGTMVRAVGDEMGTVRVASTMTDGANTMIEHDDTLPSQLGTMVINAEDEEEEGTMKRRDETMQPAKPSFLEYFEQKEKENQINSFGKSVPGPLKNSSDWKIPQDGDYEFLKSWTVEDLQKRLLALDPMMEQEIEEIRQKYQSKRQPILDAIEAKKRRQQNF"}}, "data": [{"variants_of": "B1", "conditions": "with akt1_human AKT1, P31749", "values": [{"variant": "K59R", "effect of a mutation on the interaction": "disrupting interaction"}]}]}
